Assay results from patent US20120258145A1.

Target: stomach proteases of BALB/c mice
Experiment: cell-based or functional assay

Question: “non-lipidated Omp19S polypeptide of Brucella abortus, recombinant from E. coli, with a histidine tai (from UniProt P0A3P1 22-177)” was tested. Which inhibitory effect on the action of stomach proteases did it give?
Answer: > 30%
